# Literature values as cited in PMC3526765.
# Target: Cys30 (UniProt position 49, FFSFFCPHCYQ)
# Conditions: reduced DsbA (free Cys30 thiol/thiolate); inferred from context, not stated explicitly
substance,measurement,value
Thiol:disulfide interchange protein DsbA (EcDsbA) (Escherichia coli (K12)),pKa,~3.3
